First the molecules themselves.
T1: Boc-Glu(OBzl)-Ala-Arg-MCA
T1 chain: EAR

T2: Gly-Asp-Asp-Asp-Asp-Lys-β-naphthylamide
T2 chain: GDDDDK

T3: human fibrinogen, P02671
T3 chain 1: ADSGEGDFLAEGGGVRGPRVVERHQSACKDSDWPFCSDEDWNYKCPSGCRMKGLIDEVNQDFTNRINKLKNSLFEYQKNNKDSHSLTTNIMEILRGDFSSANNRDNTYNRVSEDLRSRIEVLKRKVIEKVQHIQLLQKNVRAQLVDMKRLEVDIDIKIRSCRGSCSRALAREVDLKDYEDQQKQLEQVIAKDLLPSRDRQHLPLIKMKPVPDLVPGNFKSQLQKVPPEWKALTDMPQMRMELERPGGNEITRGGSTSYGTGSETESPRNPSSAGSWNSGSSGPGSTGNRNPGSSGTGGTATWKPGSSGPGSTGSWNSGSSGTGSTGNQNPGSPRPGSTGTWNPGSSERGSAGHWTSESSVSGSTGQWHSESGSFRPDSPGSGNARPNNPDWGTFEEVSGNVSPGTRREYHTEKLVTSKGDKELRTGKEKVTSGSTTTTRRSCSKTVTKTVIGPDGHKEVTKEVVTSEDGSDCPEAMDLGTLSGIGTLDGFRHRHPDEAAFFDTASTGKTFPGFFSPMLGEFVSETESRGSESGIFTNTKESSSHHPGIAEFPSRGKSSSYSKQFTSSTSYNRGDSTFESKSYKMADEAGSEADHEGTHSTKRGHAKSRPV
T3 chain 2: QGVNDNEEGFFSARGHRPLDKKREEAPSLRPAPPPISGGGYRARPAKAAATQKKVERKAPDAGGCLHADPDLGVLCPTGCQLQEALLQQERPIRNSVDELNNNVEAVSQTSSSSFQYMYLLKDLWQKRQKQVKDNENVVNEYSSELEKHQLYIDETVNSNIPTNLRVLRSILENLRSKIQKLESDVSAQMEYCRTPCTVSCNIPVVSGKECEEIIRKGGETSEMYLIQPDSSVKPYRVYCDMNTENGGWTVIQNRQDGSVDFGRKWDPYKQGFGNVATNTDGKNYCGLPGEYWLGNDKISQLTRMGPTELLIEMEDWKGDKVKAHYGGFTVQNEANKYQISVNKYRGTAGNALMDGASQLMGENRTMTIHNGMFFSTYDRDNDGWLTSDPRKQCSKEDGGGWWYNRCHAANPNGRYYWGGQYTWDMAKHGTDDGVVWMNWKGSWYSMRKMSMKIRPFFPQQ
T3 chain 3: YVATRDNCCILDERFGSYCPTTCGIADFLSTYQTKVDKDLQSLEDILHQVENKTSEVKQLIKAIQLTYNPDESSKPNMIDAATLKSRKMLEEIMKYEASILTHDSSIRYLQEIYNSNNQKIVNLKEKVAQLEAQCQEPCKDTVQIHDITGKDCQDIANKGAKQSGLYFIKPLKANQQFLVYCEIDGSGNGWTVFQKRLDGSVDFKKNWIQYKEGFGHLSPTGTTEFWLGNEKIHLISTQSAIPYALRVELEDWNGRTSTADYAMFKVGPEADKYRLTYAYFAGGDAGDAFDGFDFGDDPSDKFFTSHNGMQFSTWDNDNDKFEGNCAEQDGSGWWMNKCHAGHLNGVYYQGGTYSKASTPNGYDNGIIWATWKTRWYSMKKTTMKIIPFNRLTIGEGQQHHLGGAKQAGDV

T4: human high-molecular-weight (HMW) kininogen, P01042
T4 chain: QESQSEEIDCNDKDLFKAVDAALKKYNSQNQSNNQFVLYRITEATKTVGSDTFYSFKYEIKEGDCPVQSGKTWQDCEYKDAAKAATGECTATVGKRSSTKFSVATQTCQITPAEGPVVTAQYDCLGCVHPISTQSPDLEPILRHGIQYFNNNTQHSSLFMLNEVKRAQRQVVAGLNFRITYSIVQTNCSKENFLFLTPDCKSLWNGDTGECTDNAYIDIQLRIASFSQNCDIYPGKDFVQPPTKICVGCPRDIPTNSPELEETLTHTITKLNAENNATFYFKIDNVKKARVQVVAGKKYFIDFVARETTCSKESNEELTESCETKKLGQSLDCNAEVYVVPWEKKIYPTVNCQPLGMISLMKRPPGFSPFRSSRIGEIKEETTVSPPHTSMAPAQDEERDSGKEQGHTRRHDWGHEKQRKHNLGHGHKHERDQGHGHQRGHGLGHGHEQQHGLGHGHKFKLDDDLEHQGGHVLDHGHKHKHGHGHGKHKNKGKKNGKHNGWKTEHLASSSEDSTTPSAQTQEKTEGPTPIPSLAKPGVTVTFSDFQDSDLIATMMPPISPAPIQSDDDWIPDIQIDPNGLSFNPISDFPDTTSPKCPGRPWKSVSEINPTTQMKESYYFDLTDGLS

T5: Z-Phe-Arg-MCA
T5 chain: FR

T6: Pro-Phe-Arg-MCA
T6 chain: PFR

B1: Medaka EP-1 serine protease domain mutant K63R (protein)
chain: VVGGVNAEKGAWPWMVSLHWRGRHGCGASLIGRDWLLTAAHCVYGRNTHLQYWSAVLGLHAQSSMNSQEVQIRQVDRIIINKNYNRRTKEADIAMMHLQQPVNFTEWVLPVCLASEDQHFPAGRRCFIAGWGRDAEGGSLPDILQEAEVPLVDQDECQRLLPEYTFTSSMLCAGYPEGGVDSCQGDSGGPLMCLEDARWTLIGVTSFGVGCGRPERPGAYARVSAFTSWIAETRRSSFSDLD
B2: Medaka EP-1 serine protease domain mutant T105E (protein)
chain: B1 chain with R46K, T88E
B3: Medaka EP-1 serine protease domain mutant P193E (protein)
chain: B1 chain with R46K, P176E

Where a chain is given by its changes, count along the chain named. Names may count otherwise.

The target of the first data set is T1, Boc-Glu(OBzl)-Ala-Arg-MCA.
In the case of B1, the Km is 1.2 mM, the “enzyme activity against wild-type” value is on record as “consistently resulted in reduced enzyme activity for synthetic peptide substrates”, the catalytic constant (kcat) worked out at 12 min⁻¹ and the kcat/Km (mM^-1 · min^-1) is 10.
For B2 the same measures were 1.3 mM, “consistently resulted in reduced enzyme activity for synthetic peptide substrates”, 11 min⁻¹ and 9.
For B3 the same measures were 0.2 mM, “consistently resulted in reduced enzyme activity for synthetic peptide substrates”, 2.3 min⁻¹ and 12.

Another data set addresses T2, Gly-Asp-Asp-Asp-Asp-Lys-β-naphthylamide.
In the case of B1, the Km was found to be 0.2 mM, the “enzyme activity against wild-type” value was “consistently resulted in reduced enzyme activity for synthetic peptide substrates”, the kcat stood at 210 min⁻¹ and the kcat/Km (mM^-1 · min^-1) turned out to be 1100.
The matching figures for B2: 0.4 mM, “consistently resulted in reduced enzyme activity for synthetic peptide substrates”, 260 min⁻¹ and 650.
The matching figures for B3: 0.4 mM, “consistently resulted in reduced enzyme activity for synthetic peptide substrates”, 290 min⁻¹ and 730.

A further data set addresses T3, human fibrinogen, P02671.
For B1, the “nonspecific proteolytic activity (SDS-PAGE)” value is recorded as “The mutant proteases had lower nonspecific proteolytic activity for ... human fibrinogen”.
On the same count and under the same terms, next, B2: “The mutant proteases had lower nonspecific proteolytic activity for ... human fibrinogen”.
The same measure, in the same setting: the entry for B3 is “The mutant proteases had lower nonspecific proteolytic activity for ... human fibrinogen”.

In the next data set the target is T4, human high-molecular-weight (HMW) ….
On to B1, for which the “nonspecific proteolytic activity (SDS-PAGE)” value is “The mutant proteases had lower nonspecific proteolytic activity for human HMW kininogen”.
As for B2, the “nonspecific proteolytic activity (SDS-PAGE)” value is listed as “The mutant proteases had lower nonspecific proteolytic activity for human HMW kininogen”.
Still for that read-out and setting: next, B3: “The mutant proteases had lower nonspecific proteolytic activity for human HMW kininogen”.

Another data set addresses recombinant fusion protein of Medaka trypsinogen.
Turning to B1, the activation of trypsinogen result was “K63R converted to trypsin as fast as the wild type enzyme” and the “conversion of trypsinogen to active enzyme” value is on record as “A total of 12 mutants could convert the recombinant Medaka trypsinogen to its active enzyme (data not shown)”.
For B2 the same measures were “the other mutants activated trypsinogen at a reduced rate” and “A total of 12 mutants could convert the recombinant Medaka trypsinogen to its active enzyme (data not shown)”.
For B3 the same measures were “the other mutants activated trypsinogen at a reduced rate” and “A total of 12 mutants could convert the recombinant Medaka trypsinogen to its active enzyme (data not shown)”.

The target of a further data set is T5, Z-Phe-Arg-MCA.
As to B1, the Michaelis-Menten constant (Km) worked out at 0.1 mM, the “enzyme activity against wild-type” value is recorded as “consistently resulted in reduced enzyme activity for synthetic peptide substrates”, the catalytic constant (kcat) came to 1.4 min⁻¹ and the kcat/Km (mM^-1 · min^-1) came out at 14.
For B2 the same measures were 0.1 mM, “consistently resulted in reduced enzyme activity for synthetic peptide substrates”, 2 min⁻¹ and 20.
The matching figures for B3: 0.2 mM, “consistently resulted in reduced enzyme activity for synthetic peptide substrates”, 1.7 min⁻¹ and 9.

The next data set has as its target T6, Pro-Phe-Arg-MCA.
Turning to B1, the Km stood at 1.1 mM, the “enzyme activity against wild-type” value is recorded as “consistently resulted in reduced enzyme activity for synthetic peptide substrates”, the kcat was 11 min⁻¹ and the kcat/Km (mM^-1 · min^-1) is 10.
The matching figures for B2: 1.3 mM, “consistently resulted in reduced enzyme activity for synthetic peptide substrates”, 16 min⁻¹ and 12.
Consider B3, for which the Km is 1 mM, the “enzyme activity against wild-type” value is listed as “consistently resulted in reduced enzyme activity for synthetic peptide substrates”, the catalytic constant (kcat) turned out to be 27 min⁻¹ and the kcat/Km (mM^-1 · min^-1) is 27.

A further data set has as its target mouse laminin.
For the protein B1, the hydrolysis result was “Neither human fibronectin nor laminin was hydrolyzed by the mutants (data not shown)”.
Still for that read-out and setting: next, B2: “Neither human fibronectin nor laminin was hydrolyzed by the mutants (data not shown)”; B3: “Neither human fibronectin nor laminin was hydrolyzed by the mutants (data not shown)”.

The target of the next data set is Human plasma fibronectin, P02751.
Human plasma fibronectin, P02751, sequence (P02751 other isoform, or with tags, fused parts or gaps): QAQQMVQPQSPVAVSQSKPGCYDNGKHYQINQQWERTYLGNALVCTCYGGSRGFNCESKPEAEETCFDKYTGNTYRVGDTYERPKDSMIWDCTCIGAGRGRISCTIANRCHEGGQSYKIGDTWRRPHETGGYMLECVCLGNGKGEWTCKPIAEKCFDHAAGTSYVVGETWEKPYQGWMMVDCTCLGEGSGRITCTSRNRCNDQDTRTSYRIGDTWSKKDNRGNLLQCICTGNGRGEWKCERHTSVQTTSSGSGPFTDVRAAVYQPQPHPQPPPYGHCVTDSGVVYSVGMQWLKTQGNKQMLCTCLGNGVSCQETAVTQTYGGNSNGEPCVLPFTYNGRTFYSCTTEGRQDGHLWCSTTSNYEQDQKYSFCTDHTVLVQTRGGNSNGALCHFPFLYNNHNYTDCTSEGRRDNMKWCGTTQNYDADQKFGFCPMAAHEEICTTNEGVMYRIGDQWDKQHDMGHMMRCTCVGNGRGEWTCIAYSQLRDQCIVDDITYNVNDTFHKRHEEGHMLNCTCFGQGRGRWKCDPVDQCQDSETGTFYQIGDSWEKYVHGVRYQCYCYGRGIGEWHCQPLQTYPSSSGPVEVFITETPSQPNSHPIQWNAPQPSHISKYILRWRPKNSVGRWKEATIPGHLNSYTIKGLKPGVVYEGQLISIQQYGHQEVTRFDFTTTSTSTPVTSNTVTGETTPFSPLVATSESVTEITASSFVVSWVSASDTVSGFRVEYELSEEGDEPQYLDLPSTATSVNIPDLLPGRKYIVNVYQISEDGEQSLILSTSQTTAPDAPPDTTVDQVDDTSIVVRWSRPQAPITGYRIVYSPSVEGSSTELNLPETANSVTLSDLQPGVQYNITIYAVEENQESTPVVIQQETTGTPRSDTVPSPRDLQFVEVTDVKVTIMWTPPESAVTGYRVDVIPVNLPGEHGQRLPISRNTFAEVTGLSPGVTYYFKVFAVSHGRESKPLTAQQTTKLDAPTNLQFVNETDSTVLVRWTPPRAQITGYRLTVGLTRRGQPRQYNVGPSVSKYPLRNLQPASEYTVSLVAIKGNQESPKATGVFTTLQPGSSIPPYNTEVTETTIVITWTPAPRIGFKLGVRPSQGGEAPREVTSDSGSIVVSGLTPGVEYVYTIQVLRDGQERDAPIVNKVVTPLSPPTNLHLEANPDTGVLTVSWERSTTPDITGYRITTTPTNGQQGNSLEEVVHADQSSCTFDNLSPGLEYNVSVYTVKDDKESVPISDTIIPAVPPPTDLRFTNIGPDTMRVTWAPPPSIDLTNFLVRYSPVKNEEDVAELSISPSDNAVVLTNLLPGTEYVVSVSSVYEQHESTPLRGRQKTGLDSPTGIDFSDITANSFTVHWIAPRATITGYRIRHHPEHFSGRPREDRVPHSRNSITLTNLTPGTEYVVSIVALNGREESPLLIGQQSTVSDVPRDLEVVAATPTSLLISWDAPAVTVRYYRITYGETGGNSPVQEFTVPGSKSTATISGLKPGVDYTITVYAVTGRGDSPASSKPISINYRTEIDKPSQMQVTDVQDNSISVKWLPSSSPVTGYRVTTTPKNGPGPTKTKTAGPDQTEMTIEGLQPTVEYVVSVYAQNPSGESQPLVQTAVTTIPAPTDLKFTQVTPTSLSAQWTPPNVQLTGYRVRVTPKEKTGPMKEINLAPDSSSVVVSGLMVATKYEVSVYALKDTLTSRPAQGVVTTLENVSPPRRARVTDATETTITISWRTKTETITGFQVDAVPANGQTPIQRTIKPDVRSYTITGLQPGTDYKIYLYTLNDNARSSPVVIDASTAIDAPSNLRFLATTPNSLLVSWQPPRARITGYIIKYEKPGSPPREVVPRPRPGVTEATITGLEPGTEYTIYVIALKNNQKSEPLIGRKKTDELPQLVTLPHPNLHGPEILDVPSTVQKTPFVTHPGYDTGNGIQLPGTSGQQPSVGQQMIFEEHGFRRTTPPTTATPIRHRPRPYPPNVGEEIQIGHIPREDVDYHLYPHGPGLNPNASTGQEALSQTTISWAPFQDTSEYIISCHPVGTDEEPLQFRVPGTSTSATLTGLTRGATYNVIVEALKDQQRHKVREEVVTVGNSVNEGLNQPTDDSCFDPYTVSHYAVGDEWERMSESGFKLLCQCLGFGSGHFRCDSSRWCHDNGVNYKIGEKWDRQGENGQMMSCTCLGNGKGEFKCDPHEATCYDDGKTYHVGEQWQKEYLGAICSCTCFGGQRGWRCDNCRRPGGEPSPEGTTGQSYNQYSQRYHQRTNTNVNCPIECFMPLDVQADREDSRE
For the protein B1, the hydrolysis result was “Neither human fibronectin nor laminin was hydrolyzed by the mutants (data not shown)”.
On the same count and under the same terms, next, B2: “Neither human fibronectin nor laminin was hydrolyzed by the mutants (data not shown)”; B3: “Neither human fibronectin nor laminin was hydrolyzed by the mutants (data not shown)”.

The term Km denotes the substrate concentration at which the rate is half of its maximum. Usually kcat stands for the number of substrate molecules converted per active site and unit of time at saturation.

(Values after patent US20080213836.)
